Assay results from US20220340682A1 (Sanofi, published 2022).
“And” between values parts separate entries of the source, which are not always exact repeats. Identical values can stand only once.

T1: hCEACAM5, human CEACAM5 ECD (35-685) (human, UniProt P06731 35-685)
T1 construct: produced in HEK293; also called human CEACAM5 protein; human CEACAM5 extracellular domain
T1 sequence: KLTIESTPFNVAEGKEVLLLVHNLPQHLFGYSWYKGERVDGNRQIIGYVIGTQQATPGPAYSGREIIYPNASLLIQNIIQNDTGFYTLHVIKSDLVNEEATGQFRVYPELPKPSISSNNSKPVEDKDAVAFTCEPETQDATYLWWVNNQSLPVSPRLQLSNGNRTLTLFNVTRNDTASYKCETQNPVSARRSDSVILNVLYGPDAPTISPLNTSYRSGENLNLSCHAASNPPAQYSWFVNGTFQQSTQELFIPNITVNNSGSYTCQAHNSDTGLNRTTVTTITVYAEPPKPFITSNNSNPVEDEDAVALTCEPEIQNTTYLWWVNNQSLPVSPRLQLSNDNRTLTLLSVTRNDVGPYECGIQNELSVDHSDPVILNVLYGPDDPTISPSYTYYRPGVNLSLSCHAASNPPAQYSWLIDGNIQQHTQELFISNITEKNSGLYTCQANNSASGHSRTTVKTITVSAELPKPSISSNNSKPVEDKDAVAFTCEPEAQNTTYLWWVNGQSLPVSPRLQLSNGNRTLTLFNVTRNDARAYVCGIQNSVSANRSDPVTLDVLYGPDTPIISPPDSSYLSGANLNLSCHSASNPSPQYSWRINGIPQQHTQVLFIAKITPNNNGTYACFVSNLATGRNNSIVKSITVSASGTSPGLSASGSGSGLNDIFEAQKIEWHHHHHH

T2: cCEACAM5, M. fascicularis CEACAM5 ECD (35-688) (Macaca fascicularis)
T2 construct: ECD followed by a 24 amino acid extension containing a His-Tag; also called cynomolgus CEACAM5; monkey CEACAM5
T2 chain: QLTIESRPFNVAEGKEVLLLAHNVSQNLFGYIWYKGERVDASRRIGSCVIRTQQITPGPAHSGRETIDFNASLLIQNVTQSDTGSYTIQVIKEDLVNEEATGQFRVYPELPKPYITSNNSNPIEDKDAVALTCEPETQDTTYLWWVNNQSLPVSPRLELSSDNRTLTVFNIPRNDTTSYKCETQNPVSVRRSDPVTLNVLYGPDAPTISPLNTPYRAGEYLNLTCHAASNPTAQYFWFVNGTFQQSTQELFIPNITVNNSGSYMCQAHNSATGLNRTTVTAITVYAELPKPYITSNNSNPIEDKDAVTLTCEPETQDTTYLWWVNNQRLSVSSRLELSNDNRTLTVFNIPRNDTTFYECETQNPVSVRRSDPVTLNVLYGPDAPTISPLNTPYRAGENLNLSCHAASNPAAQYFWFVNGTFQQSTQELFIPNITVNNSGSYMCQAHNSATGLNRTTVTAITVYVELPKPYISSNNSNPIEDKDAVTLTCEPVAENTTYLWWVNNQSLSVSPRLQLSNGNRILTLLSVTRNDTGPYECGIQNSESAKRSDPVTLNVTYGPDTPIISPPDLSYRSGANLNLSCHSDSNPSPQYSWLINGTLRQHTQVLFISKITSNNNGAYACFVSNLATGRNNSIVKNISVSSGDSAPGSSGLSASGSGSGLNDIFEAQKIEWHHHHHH

T3: hCEACAM7, human CEACAM7 ECD (36-248) (human)
T3 construct: With 24 amino acid extension containing a His-Tag
T3 chain: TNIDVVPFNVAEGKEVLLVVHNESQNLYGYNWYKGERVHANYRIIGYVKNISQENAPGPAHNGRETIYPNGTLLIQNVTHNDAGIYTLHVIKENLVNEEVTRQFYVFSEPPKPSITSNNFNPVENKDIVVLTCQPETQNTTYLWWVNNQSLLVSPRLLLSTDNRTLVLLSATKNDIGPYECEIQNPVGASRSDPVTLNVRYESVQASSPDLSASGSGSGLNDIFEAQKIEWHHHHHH


Experiments:
[1] = target: T1, hCEACAM5, human CEACAM5 ECD (35-685); assay: ELISA
[2] = target: T2, cCEACAM5, M. fascicularis CEACAM5 ECD …; assay: ELISA
[3] = target: T3, hCEACAM7, human CEACAM7 ECD (36-248); assay: ELISA
[4] = target: T1, hCEACAM5, human CEACAM5 ECD (35-685); assay: ELISA; remark: listed apart in the source
[5] = target: T1, hCEACAM5, human CEACAM5 ECD (35-685); assay: ELISA, chimeric mAb
[6] = target: T2, cCEACAM5, M. fascicularis CEACAM5 ECD …; assay: ELISA, chimeric mAb

Row | Binder | EC50 [1] [nM] | EC50 [2] [nM] | percentage of binding compared to full binding with human CEACAM5 [3] [%] | percentage of binding compared to full binding with human CEACAM5 [4] [%] | EC50 [5] | EC50 [6]
1 | huMAb2-3 (antibody, human IgG1, kappa, V domains shown, Humanized MAb2, human IgG1 / Ckappa; also called MAb2_VL1cVH1a-IgG1) VH: EVQLQESGPGLVKPGGSLSLSCAASGFVFSSYDMSWVRQTPERGLEWVAYISSGGGITYAPSTVKGRFTVSRDNAKNTLYLQMNSLTSEDTAVYYCAAHYFGSSGPFAYWGQGTLVTVSS VL: DIQMTQSPASLSASVGDRVTITCRASENIFSYLAWYQQKPGKSPKLLVYNTRTLAEGVPSRFSGSGSGTDFSLTISSLQPEDFATYYCQHHYGTPFTFGSGTKLEIKR | 0.18 | 0.19 | 0.3 | 100 | – | –
2 | huMAb2-4 (antibody, human IgG1, kappa, V domains shown, Humanized MAb2, human IgG1 / Ckappa; also called MAb2_VL1d VH1-IgG1; MAb2_VL1dVH1-IgG1) VH: EVQLQESGPGLVKPGGSLSLSCAASGFVFSSYDMSWVRQTPERRLEWVAYISSGGGITYFPSTVKGRFTVSRDNAKNTLYLQMNSLTSEDTAIYYCAAHYFGSSGPFAYWGQGTLVTVSA VL: DIQMTQSPASLSASVGDTVTITCRASENIFSYLAWYQQKPGKSPKLLVYNTRTLAEGVPSRFSGSGSGTQFSLTISSLQPEDFGSYYCQHHYGTPFTFGSGTKLEIKR | 0.22 | 0.17 | 0.3 | 100 | – | –
3 | chMAb2 (antibody, human IgG1, kappa, V domains shown, Chimeric, human IgG1, Ck isotype; also called MAb2-IgG1; chimeric MAb2) VH: EVQLQESGGVLVKPGGSLKLSCAASGFVFSSYDMSWVRQTPEKRLEWVAYISSGGGITYFPDTVQGRFTVSRDNAKNTLYLQMNSLKSEDTAIYYCAAHYFGSSGPFAYWGQGTLVTVSA VL: DIQMTQSPASLSASVGETVTITCRASENIFSYLAWYQQKQGKSPQLLVYNTKTLAEGVPSRFSGSGSGTQFSLKINSLQPEDFGSYYCQHHYGTPFTFGSGTKLEIKR | 0.16 | 0.17 | 0.3 | 100 | 0.16 nM and 0.14 nM | 0.13 nM and 0.17 nM
4 | huMAb2-1 (antibody, V domains shown, Humanized MAb2 (VL1 + VH1) fused to human IgG1 and human Ckappa constant domains; also called MAb2_VL1VH1-IgG1; MAb2VL1VH1-IgG1) VH: EVQLQESGPGLVKPGGSLSLSCAASGFVFSSYDMSWVRQTPERRLEWVAYISSGGGITYFPSTVKGRFTVSRDNAKNTLYLQMNSLTSEDTAIYYCAAHYFGSSGPFAYWGQGTLVTVSA VL: DIQMTQSPASLSASVGDTVTITCRASENIFSYLAWYQQKPGKSPKLLVYNTKTLAEGVPSRFSGSGSGTQFSLTISSLQPEDFGSYYCQHHYGTPFTFGSGTKLEIK | 0.22 | 0.2 | 0.3 | 100 | – | –
5 | huMAb2-2 (antibody, V domains shown, Humanized MAb2 (VL1a + VH1a) fused to human IgG1 and human Ckappa constant domains; also called MAb2_VL1aVH1a-IgG1; MA2_VL1aVH1a-IgG1) VH: EVQLQESGPGLVKPGGSLSLSCAASGFVFSSYDMSWVRQTPERGLEWVAYISSGGGITYAPSTVKGRFTVSRDNAKNTLYLQMNSLTSEDTAVYYCAAHYFGSSGPFAYWGQGTLVTVSS VL: DIQMTQSPASLSASVGDRVTITCRASENIFSYLAWYQQKPGKSPKLLVYNTKTLAEGVPSRFSGSGSGTDFSLTISSLQPEDFATYYCQHHYGTPFTFGSGTKLEIK | 0.2 | 0.17 | 0.3 | 100 | – | –
